Data taken from US20220332804A1 (CSL INNOVATION, published 2022).
Residue numbers refer to the chain shown, from its start. Names may count otherwise. Blank lines part the entries; values can stand above or below the binder they belong to.

Tests used:
[1] = molecular target: T1, human complement C2 zymogen (human, UniProt P06681 21-752); assay: SPR kinetics, captured antibody, analyte huC2 2000 mM Ca^2+ (so in the source), pH 7.3
T1 construct: also called huC2; human C2
T1 sequence: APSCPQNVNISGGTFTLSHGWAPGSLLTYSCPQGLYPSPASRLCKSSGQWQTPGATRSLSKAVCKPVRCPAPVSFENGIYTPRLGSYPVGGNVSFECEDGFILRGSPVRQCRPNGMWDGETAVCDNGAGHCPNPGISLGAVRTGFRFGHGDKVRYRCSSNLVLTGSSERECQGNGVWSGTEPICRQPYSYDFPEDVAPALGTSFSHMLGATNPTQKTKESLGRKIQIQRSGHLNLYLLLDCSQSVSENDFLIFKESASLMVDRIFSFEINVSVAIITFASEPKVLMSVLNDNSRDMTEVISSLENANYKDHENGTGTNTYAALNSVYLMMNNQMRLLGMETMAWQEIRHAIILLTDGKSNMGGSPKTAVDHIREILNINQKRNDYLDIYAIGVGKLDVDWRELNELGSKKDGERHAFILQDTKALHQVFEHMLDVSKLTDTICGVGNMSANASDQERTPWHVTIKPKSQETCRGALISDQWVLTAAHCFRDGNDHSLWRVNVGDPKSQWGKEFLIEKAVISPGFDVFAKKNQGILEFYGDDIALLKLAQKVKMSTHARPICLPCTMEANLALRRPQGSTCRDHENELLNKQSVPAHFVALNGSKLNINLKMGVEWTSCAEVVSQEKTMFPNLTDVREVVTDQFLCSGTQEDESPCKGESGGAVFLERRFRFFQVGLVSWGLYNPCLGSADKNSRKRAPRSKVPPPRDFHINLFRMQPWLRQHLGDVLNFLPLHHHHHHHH
Procedure: (§1) Surface plasmon resonance (SPR, Biacore) was used for all binding affinity analyses. In brief, goat anti-human IgG was directly immobilised onto the carboxymethyl dextran surface of CM5 sensorchips to approximately 12,000 RU using standard NHS/EDC chemistry at pH 5. The immobilised antibody surface was pre-conditioned with ten injections of polyclonal human IgG (Privigen 60 s) prepared at 1 μg/mL. Ligands (anti-C2 mAbs) were captured at the beginning of each cycle as described below. An adjacent spot or flow cell in which only Polyclonal IgG was capture was used as a reference surface. The goat anti-human IgG Fc antibody surface was regenerate in 100 mM H3PO4, injected for 45 seconds at the end of each cycle. Experiments were performed at 37° C. and the flow rate of each experiment was kept constant at 30 μL/min.

[2] = molecular target: T1, human complement C2 zymogen; assay: SPR steady state, captured antibody, analyte huC2 200 mM Ca^2+ (so in the source), pH 6.0
[3] = molecular target: T1, human complement C2 zymogen; assay: SPR kinetics, captured antibody, analyte huC2 (so in the source), pH 7.3
Procedure: as §1

[4] = molecular target: T1, human complement C2 zymogen; assay: SPR steady state, captured antibody, analyte huC2 0 mM Ca^2+, pH 6.0
[5] = molecular target: T2, cynomolgus monkey FcRn/β2m (cynomolgus monkey, UniProt Q8SPV9 24-297; Q8SPW0 21-119, limits assumed); assay: SPR, immobilised antibody, cyno FcRn/b2m analyte, pH 6.0
T2 construct: injected in solution over immobilised antibody; also called Cyno FcRn/β2m
Procedure: (§2) Anti-C2 mAbs (1 μg/mL at pH 5) were immobilized on a carboxylmethyldextran (CM5) sensorchip surface using standard EDC/NHS chemistry. Human and Cyno FcRn/β2m (40 μM) were prepared in running buffer (10 mM HEPES, 150 mM NaCl, 10 mM MES adjusted to either pH 6 or pH 7.3) and injected on the immobilized anti-C2 surface at concentrations ranging from 0.078 to 40 μM, prepared in two-fold dilutions in running buffer. Association and dissociation phases were monitored for 180 and 600 seconds, respectively. […] Double referenced sensorgrams were fitted to either a 1:1 kinetic model (pH 6), including a term for mass transport limitation or to a 1:1 steady state model (pH 7.3) where responses at the end of the association phase were plotted against respective concentrations.
(§3) Binding to both human and cynomolgus monkey FcRn was tested using the SPR methods described above.

[6] = molecular target: T1, human complement C2 zymogen; assay: SPR kinetics, captured antibody, analyte huC2 20 mM Ca^2+ (so in the source), pH 7.3
Procedure: as §1

[7] = molecular target: T2, cynomolgus monkey FcRn/β2m; assay: SPR, immobilised antibody, cyno FcRn/b2m analyte, pH 7.3
Procedure: as §2, §3

[8] = molecular target: T1, human complement C2 zymogen; assay: SPR kinetics, captured antibody, analyte huC2 200 mM Ca^2+ (so in the source), pH 7.3
Procedure: as §1

[9] = molecular target: T1, human complement C2 zymogen; assay: SPR steady state, captured antibody, analyte huC2 2000 mM Ca^2+ (so in the source), pH 6.0
[10] = molecular target: T1, human complement C2 zymogen; assay: SPR kinetics, captured antibody, analyte huC2 0 mM Ca^2+, pH 7.3
Procedure: as §1

[11] = molecular target: T1, human complement C2 zymogen; assay: SPR steady state, captured antibody, analyte huC2 20 mM Ca^2+ (so in the source), pH 6.0
[12] = molecular target: T1, human complement C2 zymogen; assay: SPR kinetics, captured antibody, analyte huC2 0 mM Ca^2+, pH 7.3; remark: listed apart in the source
Procedure: as §1

[13] = molecular target: T1, human complement C2 zymogen; assay: SPR kinetics, captured antibody, analyte huC2 2 mM Ca^2+ (so in the source), pH 7.3
Procedure: as §1

[14] = molecular target: T1, human complement C2 zymogen; assay: SPR steady state, captured antibody, analyte huC2 0 mM Ca^2+, pH 6.0; remark: listed apart in the source
[15] = molecular target: T1, human complement C2 zymogen; assay: SPR steady state, captured antibody, analyte huC2 20 mM Ca^2+ (so in the source), pH 6.0; remark: listed apart in the source
[16] = molecular target: T1, human complement C2 zymogen; assay: SPR steady state, captured antibody, analyte huC2 2000 mM Ca^2+ (so in the source), pH 6.0; remark: listed apart in the source
[17] = molecular target: T1, human complement C2 zymogen; assay: SPR kinetics, captured antibody, analyte huC2 2000 mM Ca^2+ (so in the source), pH 7.3; remark: listed apart in the source
Procedure: as §1

[18] = molecular target: T1, human complement C2 zymogen; assay: SPR steady state, captured antibody, analyte huC2 200 mM Ca^2+ (so in the source), pH 6.0; remark: listed apart in the source
[19] = molecular target: T1, human complement C2 zymogen; assay: SPR kinetics, captured antibody, analyte huC2 20 mM Ca^2+ (so in the source), pH 7.3; remark: listed apart in the source
Procedure: as §1

[20] = molecular target: T1, human complement C2 zymogen; assay: SPR kinetics, captured antibody, analyte huC2 200 mM Ca^2+ (so in the source), pH 7.3; remark: listed apart in the source
Procedure: as §1

T2 sequence (Q8SPV9 24-297 limits assumed, chain 1 of 2): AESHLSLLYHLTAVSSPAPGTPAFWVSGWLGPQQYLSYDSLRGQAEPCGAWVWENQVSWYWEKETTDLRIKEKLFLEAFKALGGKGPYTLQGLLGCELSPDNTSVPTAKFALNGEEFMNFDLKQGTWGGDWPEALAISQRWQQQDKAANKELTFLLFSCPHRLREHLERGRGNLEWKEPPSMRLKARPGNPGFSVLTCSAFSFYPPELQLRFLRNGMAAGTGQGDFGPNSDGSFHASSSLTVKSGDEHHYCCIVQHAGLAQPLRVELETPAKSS
T2 sequence (Q8SPW0 21-119 limits assumed, chain 2 of 2): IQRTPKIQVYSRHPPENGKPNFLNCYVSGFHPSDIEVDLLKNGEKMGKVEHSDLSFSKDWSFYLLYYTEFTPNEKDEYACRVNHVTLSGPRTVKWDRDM

Kd [1]: 10.7 nM
koff [1]: 0.00573 s⁻¹
Kd [2]: 86.9 nM
kon [3]: 538000 M⁻¹ s⁻¹
Kd [4]: 84 nM
Kd [5]: 19 nM
Kd [6]: 8.8 nM
koff [6]: 0.00516 s⁻¹
kon [6]: 585000 M⁻¹ s⁻¹
Kd [7]: 2200 nM
Kd [8]: 9.2 nM
koff [8]: 0.00527 s⁻¹
kon [8]: 573000 M⁻¹ s⁻¹
Kd [9]: 105 nM
Kd [10]: 8.7 nM
koff [10]: 0.00521 s⁻¹
kon [10]: 601000 M⁻¹ s⁻¹
Kd [11]: 81.9 nM
B1: RF16-226 YEY (Fc mutations M252Y, N286E, N434Y) (antibody, human IgG4 S228P, lambda)
heavy: EVQLVQSGAEVKKPGESLKISCKGSGYSFTSYWIGWVRQMPGKGLEWMGIIYPGDSDTRYSPSFQGQVTISADKSISTAYLQWSSLKASDTAMYYCARRFSYSSGWDMWGQGTLVTVSSASTKGPSVFPLAPCSRSTSESTAALGCLVKDYFPEPVTVSWNSGALTSGVHTFPAVLQSSGLYSLSSVVTVPSSSLGTKTYTCNVDHKPSNTKVDKRVESKYGPPCPPCPAPEFLGGPSVFLFPPKPKDTLYISRTPEVTCVVVDVSQEDPEVQFNWYVDGVEVHEAKTKPREEQFNSTYRVVSVLTVLHQDWLNGKEYKCKVSNKGLPSSIEKTISKAKGQPREPQVYTLPPSQEEMTKNQVSLTCLVKGFYPSDIAVEWESNGQPENNYKTTPPVLDSDGSFFLYSRLTVDKSRWQEGNVFSCSVMHEALHYHYTQKSLSLSLGK
light: SYELTQPPSVSVSPGQTARITCSGDALTSKYVAWYQQKSGLAPLLVIYEDTRRPSGIPAKFSGSSSGSVATLTISGAHGDDEADYYCYSTDASGHQRVFGGGTKLTVLSQPKAAPSVTLFPPSSEELQANKATLVCLISDFYPGAVTVAWKADGSPVKAGVETTKPSKQSNNKYAASSYLSLTPEQWKSHRSYSCQVTHEGSTVEKTVAPTECS

Kd [12]: 8.5 nM
koff [12]: 0.00493 s⁻¹
kon [12]: 578000 M⁻¹ s⁻¹
kon [13]: 572000 M⁻¹ s⁻¹
Kd [14]: 87.3 nM
Kd [15]: 83.1 nM
Kd [16]: 102 nM
Kd [5]: 8.7 nM
Kd [17]: 10.2 nM
koff [17]: 0.00584 s⁻¹
Kd [18]: 91.9 nM
Kd [7]: 1100 nM
Kd [19]: 8.4 nM
koff [19]: 0.00526 s⁻¹
kon [19]: 626000 M⁻¹ s⁻¹
Kd [20]: 8.8 nM
koff [20]: 0.00539 s⁻¹
kon [20]: 612000 M⁻¹ s⁻¹
B2: RF16-226 YPY (Fc mutations M252Y, V308P, N434Y) (antibody, human IgG4 S228P, lambda)
heavy: B1 heavy with E285N, V307P
light: B1 light
